In assay [1] the target is T1, human LILRB4 expressed on CHO-K1 cells (CHO-K1-huLILRB4) (human, UniProt Q8NHJ6 22-280).
T1 construct: also called engineered cells expressing human LILRB4
The experiment in a line: flow cytometry on CHO-K1-huLILRB4 cells. Background: A flow cytometer gives signals particle by particle.

In assay [2] the target is T2, human LILRB4 endogenously expressed on tumor cells (MV-4-11, HL-60) (human, UniProt Q8NHJ6 22-448).
T2 construct: whole, on cells; also called tumor cells (MV-411) expressing human LILRB4; HL-60 cells that endogenously express human LILRB4
The experiment in a line: flow cytometry on MV-4-11 cells.

The target in assay [3] is T3, cynomolgus monkey CD3 protein (ACRO Biosystems, Cat. No.: CDD-C52W4) (cynomolgus monkey, UniProt Q95LI5 22-117).
T3 sequence (looked up): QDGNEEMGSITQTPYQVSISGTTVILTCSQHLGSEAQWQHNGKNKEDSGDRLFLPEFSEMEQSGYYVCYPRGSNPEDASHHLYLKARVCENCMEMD
The experiment in a line: BLI (ForteBio Octet RED96e), antibody captured on AHC sensor, antigen in solution, 1:1 model. (In general: BLI is a label-free optical method that tracks binding on a fibre tip over time.)

Assay [4] has as its target T4, cynomolgus monkey LILRB4 protein (ACRO Biosystems, Cat. No.: CDK-C5227) (cynomolgus monkey).
T4 construct: Bought reagent
The description is as above.

Assay [5] concerns the target human CD3 protein (Sino Biological, Cat. No.: CT038-H2508H) (human, UniProt P07766 23-126). The assay is described as above.

Sequence of human CD3 protein (Sino Biological, Cat. No.: CT038-H2508H) (P07766 23-126): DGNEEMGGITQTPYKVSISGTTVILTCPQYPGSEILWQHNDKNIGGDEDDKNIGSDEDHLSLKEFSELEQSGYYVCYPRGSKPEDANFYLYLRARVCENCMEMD

B1: anti-LILRB4 chimeric antibody 1H12 (antibody, human IgG1, V domains shown)
VH: EVQVVESGGGLVQAGGSLRLSCAASETIFSSNVMGWYRQAHGKQRELVAATGINGVTKYADSVKGRFTISRDNAKNTVYLQMNSLNVEDTAVYYCAAGVWRNFVMRSPDYWGQGTQVTVSS
notes: also called Camelid-derived anti-LILRB4 VHH 1H12-Fc
B1: the binding result in assay [1] is on record as “binds”.

B2: anti-LILRB4 chimeric antibody 2A3 (antibody, human IgG1, V domains shown)
VH: EVQVVESGGGSVQTGGSLTLSCAASGRTFRSNGMGWFRQAPGKEREFVAAIRWSGRRTTYTDSVKGRFTISSDSAKNTVYLQMSSLKPEDTAVYYCAVDLLPPYGALDKYDYWGQGTQVTVSS
notes: also called Camelid-derived anti-LILRB4 VHH 2A3-Fc
Consider B2, for which, in assay [1], the binding result was “binds”.

B3: humanized anti-LILRB4 antibody huB1G5-1 (antibody, V domains shown)
VH: EVQLVESGGGLVQPGGSLRLSCAASESIFSSNVMGWYRQAPGKQRELVAAVGINGLTKIGDSVKGRFTISRDNAKNSVYLQMNSLRAEDTAVYYCAAGAYVRFLQNSPDYWGQGTQVTVSS
notes: Humanized VHH-Fc heavy-chain antibody without light chain; also called Humanized anti-LILRB4 VHH huB1G5-1-Fc
Consider B3, for which the binding result in assay [2] is on record as “binds”.

B4: anti-LILRB4 chimeric antibody B1G5 (antibody, human IgG1, V domains shown)
VH: EVQLVESGGGLVQAGGSLRLSCAASESIFSSNVMGWYRQSPGHQRELVAAVGINGLTKIGDSVKGRFTISRDNAKNTVYLQMNSLKVEDTAVYYCAAGAYVRFLQNSPDYWGQGTQVTVSS
notes: also called Camelid-derived anti-LILRB4 VHH B1G5-Fc
In the case of B4, the binding result in assay [1] was “binds”.

B5: humanized anti-LILRB4 antibody huB1G5-3 (antibody, V domains shown)
VH: EVQLVESGGGLVQPGGSLRLSCAASESIFSSNVMGWYRQAPGKQRELVAAVGIQGLTKIGDSVKGRFTISRDNAKNSVYLQMNSLRAEDTAVYYCAAGAYVRFLQQSPDYWGQGTQVTVSS
notes: Humanized VHH-Fc heavy-chain antibody without light chain; also called Humanized anti-LILRB4 VHH huB1G5-3-Fc
In the case of B5, in assay [2], the binding result is reported as “binds”.

B6: anti-LILRB4 chimeric antibody B1A2 (antibody, human IgG1, V domains shown)
VH: QVQLVESGGGLVQPGGSLRLSCAASGFTFSSYTMSWVRQAPGKGLEWISDINNDGGKTYYAFSVEGRFTISRDNAKNTLYLQMNSLKPEDTAVYYCVRDHQYTSRNGDRGQGTQVTVSS
notes: also called Camelid-derived anti-LILRB4 VHH B1A2-Fc
On to B6, for which the binding result in assay [1] is “binds”.

B7: anti-LILRB4xCD3 bispecific antibody huB1G5-CD3Fab (bispecific antibody, human IgG1, lambda, L234A L235A)
heavy 1: not shown
light: QAVVTQEPSLTVSPGGTVTLTCRSSTGAVTTSNYANWVQQKPGQAPRGLIGGTNKRAPGVPARFSGSLLGGKAALTLSGAQPEDEAEYFCALWYSNLWVFGGGTKLTVLGQPKAAPSVTLFPPSSEELQANKATLVCLISDFYPGAVTVAWKADSSPVKAGVETTTPSKQSNNKYAASSYLSLTPEQWKSHRSYSCQVTHEGSTVEKTVAPTEC
heavy 2: EVQLVESGGGLVQPGGSLRLSCAASESIFSSNVMGWYRQAPGKQRELVAAVGIQGLTKIGDSVKGRFTISRDNAKNSVYLQMNSLRAEDTAVYYCAAGAYVRFLQQSPDYWGQGTQVTVSSEPKSSDKTHTCPPCPAPEAAGGPSVFLFPPKPKDTLMISRTPEVTCVVVAVSHEDPEVKFNWYVDGVEVHNAKTKPREEQYNSTYRVVSVLTVLHQDWLNGKEYKCKVSNKALAAPIEKTISKAKGQPREPQVCTLPPSRDELTKNQVSLSCAVKGFYPSDIAVEWESNGQPENNYKTTPPVLDSDGSFFLVSKLTVDKSRWQQGNVFSCSVMHEALHNHYTQKSLSLSPGK
notes: HC1: CD3Fab heavy chain-knob; LC1: CD3Fab light chain; HC2: huB1G5-hole (VHH huB1G5-3 and Fc hole); One anti-LILRB4 VHH, one anti-CD3 Fab, knob-in-hole Fc
As to B7, the equilibrium dissociation constant (Kd) (in general, the equilibrium constant for the complex coming apart) in assay [3] was determined as 6.59 nM; in assay [4], 11 nM; in assay [5], 26.3 nM. In addition, the koff (commonly the first-order rate constant of dissociation) came to 0.0021 s⁻¹ in assay [3], 0.00351 s⁻¹ in assay [4] and 0.00803 s⁻¹ in assay [5]. Moreover, the figures for the kon in assay [3], in assay [4] and in assay [5] were 318000 M⁻¹ s⁻¹, 320000 M⁻¹ s⁻¹ and 305000 M⁻¹ s⁻¹, respectively.

B8: anti-LILRB4xCD3 bispecific antibody huB1G5-CD3-2VHH (bispecific antibody, human IgG1, lambda, L234A L235A)
heavy 1: not shown
light: QAVVTQEPSLTVSPGGTVTLTCRSSTGAVTTSNYANWVQQKPGQAPRGLIGGTNKRAPGVPARFSGSLLGGKAALTLSGAQPEDEAEYFCALWYSNLWVFGGGTKLTVLGQPKAAPSVTLFPPSSEELQANKATLVCLISDFYPGAVTVAWKADSSPVKAGVETTTPSKQSNNKYAASSYLSLTPEQWKSHRSYSCQVTHEGSTVEKTVAPTEC
heavy 2: EVQLVESGGGLVQPGGSLRLSCAASESIFSSNVMGWYRQAPGKQRELVAAVGIQGLTKIGDSVKGRFTISRDNAKNSVYLQMNSLRAEDTAVYYCAAGAYVRFLQQSPDYWGQGTQVTVSSEPKSSDKTHTCPPCPAPEAAGGPSVFLFPPKPKDTLMISRTPEVTCVVVAVSHEDPEVKFNWYVDGVEVHNAKTKPREEQYNSTYRVVSVLTVLHQDWLNGKEYKCKVSNKALAAPIEKTISKAKGQPREPQVCTLPPSRDELTKNQVSLSCAVKGFYPSDIAVEWESNGQPENNYKTTPPVLDSDGSFFLVSKLTVDKSRWQQGNVFSCSVMHEALHNHYTQKSLSLSPGK
notes: HC1: huB1G5-CD3Fab heavy chain-knob (VHH, GGGGS, hu34H1-VH, CH1, Fc knob); LC1: CD3Fab light chain; HC2: huB1G5-hole; Two anti-LILRB4 VHHs, one anti-CD3 Fab
Regarding B8, in assay [3], the Kd amounted to 6.92 nM, the off-rate constant (koff) is 0.00191 s⁻¹ and the kon (commonly the second-order rate constant of association) came out at 276000 M⁻¹ s⁻¹. In addition, in assay [4], the Kd worked out at 10.6 nM, the koff was 0.0023 s⁻¹ and the kon is 218000 M⁻¹ s⁻¹. In assay [5], this molecule had a Kd of 22.6 nM, a koff of 0.00549 s⁻¹ and an on-rate constant (kon) of 242000 M⁻¹ s⁻¹.

B9: anti-LILRB4xCD3 bispecific antibody huB1G5-ScFv-2VHH (bispecific antibody)
heavy 1: not shown
heavy 2: EVQLVESGGGLVQPGGSLRLSCAASESIFSSNVMGWYRQAPGKQRELVAAVGIQGLTKIGDSVKGRFTISRDNAKNSVYLQMNSLRAEDTAVYYCAAGAYVRFLQQSPDYWGQGTQVTVSSEPKSSDKTHTCPPCPAPEAAGGPSVFLFPPKPKDTLMISRTPEVTCVVVAVSHEDPEVKFNWYVDGVEVHNAKTKPREEQYNSTYRVVSVLTVLHQDWLNGKEYKCKVSNKALAAPIEKTISKAKGQPREPQVCTLPPSRDELTKNQVSLSCAVKGFYPSDIAVEWESNGQPENNYKTTPPVLDSDGSFFLVSKLTVDKSRWQQGNVFSCSVMHEALHNHYTQKSLSLSPGK
notes: HC1: huB1G5-Hu34ScFv-knob (VHH, GGGGS, 23L2 ScFv, Fc knob); HC2: huB1G5-hole
In assay [3], B9 returned a Kd of 28.2 nM, a koff of 0.00801 s⁻¹ and a kon of 284000 M⁻¹ s⁻¹. In assay [4], this molecule came in with a Kd of 15.3 nM, a koff of 0.00365 s⁻¹ and an association rate constant (kon) of 238000 M⁻¹ s⁻¹. In assay [5], this molecule returned a Kd of 35.7 nM, a koff of 0.0112 s⁻¹ and an on-rate constant (kon) of 313000 M⁻¹ s⁻¹.

B10: h193 (a fully human monoclonal antibody against LILRB4) (antibody, human IgG1, kappa, V domains shown)
VH: EVQLVESGGGLVQPGGSLRLSCAASGFSLSSSYWISWVRQAPGKGLEWIGSIDSGSVGITYYATWVKGRFTISRDNSKNTLYLQMNSLRAEDTAVYYCARHGDNWALDLWGQGTLVTVSS
VL: DLVMTQSPSTLSASVGDRVTITCQASQSINSWLAWYQQKPGKPPKLLIYKASTLASGVSSRFSGSGSGTEFTLTISSLQPDDVATYYCQHGYIRGDLDNVFGGGTKVEIKR
notes: Control antibody; also called antibody h193; control antibody h193
As to B10, the binding result in assay [1] and in assay [2] was “binds” in each case.
